Target: B. mori CS-1 (Centromeric Subunit protein 1) (Bombyx mori)
Assay: SEC-MALS

In the case of “B. mori CS-2 (Centromeric Subunit protein 2) (natural protein)”, the stoichiometry N was 1.
For “B. mori CS-3 (Centromeric Subunit protein 3) (natural protein)”, the stoichiometry N was 1.
“B. mori CS-4 (Centromeric Subunit protein 4) (natural protein)” showed a stoichiometry N of 1.

— doi:10.1101/2025.07.14.664805
